Laboratory results: patent US20190031764A1 (Janssen / Centocor, published 2019)
Changes are numbered by the printed parent chain. Numbers in names are those of the source.

T1: Biotinylated human TIM3-Fc fusion from R&D systems (human, UniProt Q8TDQ0 22-200, biotinylated (site not stated))
T1 construct: Bought reagent; also called CD366; not shown: Fc part of the bought fusion
T1 sequence (looked up): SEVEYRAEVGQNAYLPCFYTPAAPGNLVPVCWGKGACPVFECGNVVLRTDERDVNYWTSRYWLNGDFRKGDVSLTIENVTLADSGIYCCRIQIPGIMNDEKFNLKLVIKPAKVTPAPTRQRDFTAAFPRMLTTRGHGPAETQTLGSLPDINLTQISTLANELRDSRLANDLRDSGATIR

B1: S88D variant of PD1B244 (antibody, V domains shown)
VH: QVQLVQSGAEVKKPGSSVKVSCKASGGTFSSYAISWVRQAPGQGLEWMGGIIPIFDTANYAQKFQGRVTITADESTSTAYMELSSLRDEDTAVYYCARPGLAAAYDTGSLDYWGQGTLVTVSS
VL: EIVLTQSPATLSLSPGERATLSCRASQSVRSYLAWYQQKPGQAPRLLIYDASNRATGIPARFSGSGSGTDFTLTISSLEPEDFAVYYCQQRNYWPLTFGQGTKVEIK
notes: Kabat position 84; also called PD1 S88D variant; PD1H170 S88D
B2: S75D variant of PD1B244 (antibody, V domains shown)
VH: B1 VH with S75D, D88S
VL: B1 VL
notes: Kabat position 74; also called PD1 S75D variant; PD1H170 S75D
B3: S84D variant of PD1B244 (antibody, V domains shown)
VH: B1 VH with S84D, D88S
VL: B1 VL
notes: Kabat position 82a; also called PD1 S84D variant; PD1H170 S84D
B4: A88D variant of TIMB337 (antibody, V domains shown)
VH: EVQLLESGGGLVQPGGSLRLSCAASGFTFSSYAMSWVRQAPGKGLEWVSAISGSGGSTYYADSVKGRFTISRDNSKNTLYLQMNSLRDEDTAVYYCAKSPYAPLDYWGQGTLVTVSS
VL: B1 VL with R30N, S31D, R91G, N92G, Y93H, W94A, L96I
notes: Kabat position 84; also called TIM3 A88D variant; TM3H24 A88D
B5: S75D variant of TIMB337 (antibody, V domains shown)
VH: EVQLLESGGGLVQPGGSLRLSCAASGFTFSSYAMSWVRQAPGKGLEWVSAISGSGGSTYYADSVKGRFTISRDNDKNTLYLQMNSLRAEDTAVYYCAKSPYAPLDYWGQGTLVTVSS
VL: B1 VL with R30N, S31D, R91G, N92G, Y93H, W94A, L96I
notes: Kabat position 74; also called TIM3 S75D variant; TM3H24 S75D
B6: N84D variant of TIMB337 (antibody, V domains shown)
VH: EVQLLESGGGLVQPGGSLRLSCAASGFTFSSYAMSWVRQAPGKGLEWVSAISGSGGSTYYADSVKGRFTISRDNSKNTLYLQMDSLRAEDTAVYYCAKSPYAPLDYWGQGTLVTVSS
VL: B1 VL with R30N, S31D, R91G, N92G, Y93H, W94A, L96I
notes: Kabat position 82a; also called TIM3 N84D variant; TM3H24 N84D

target: T2, human PD1 antigen (human, UniProt Q15116 25-167, limits assumed); assay: Ag Binding column; PD1 SPR
T2 construct: Injected as analyte (100 nM-0.4 nM) in the ProteOn SPR assay; construct not described; also called CD279
T2 sequence (Q15116 25-167 limits assumed): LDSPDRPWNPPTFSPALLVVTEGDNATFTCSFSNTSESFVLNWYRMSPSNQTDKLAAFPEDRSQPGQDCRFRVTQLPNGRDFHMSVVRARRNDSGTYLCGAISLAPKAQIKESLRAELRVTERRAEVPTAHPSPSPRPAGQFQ

Row | Binder | binding result
1 | B1 | binds
2 | B2 | binds
3 | B3 | binds

target: T1, Biotinylated human TIM3-Fc fusion from …; assay: Ag Binding column; TIM3-Fc ELISA

Row | Binder | binding result
4 | B4 | binds
5 | B5 | binds
6 | B6 | binds
